# Laboratory results taken from the DeepSol protein solubility set.
# Test: soluble on expression in E. coli; label from the status in PepcDB or PDB records
row,Sequence,soluble on expression in E. coli
1,MLLVSTGAAGAEVIYVEPGASIQAAVNNSTTGDFIIVKAGEYEENIVVNVSGVTVSSEPEKSGSVFIRAGDRNSSVFQVKADNVTISGFNITGSGEFFSTHEASSPRDSFPKDPDGQGVSDIPELRKTYSLGSGEVFISRSTEFDCPQAGICLDQVENCTIERNHIFENQYGVYLQGSMNNTLSNNTFFRNGILIDEGCSRNTAENNSIEEGNLIIGAHCWDNIISRNRLSNGGGIGIACCGGGNLVSNNEIINCSTGVDMYDTQARTVLCGNLITDCDYGIYLILVYDSRVYNNTISNSSRGIFLRENSQNNELSGNIINSSNESGIYLLDHCADNRIFNNYFNNTVNVKAENSKGNSWNITKAPGINIAEGPYLGGNFWADLNGTGYSQIAEDSDSDGICDLPYNVNGCDYDYLPLARLPFSPSLSGGNLKLLEHHHHHH,not soluble
2,MLLVSVISCLLISVLAKDAVTPRVGSQCTKNQVVRKLTVYEDGALEAECGPVPCGEVGKRCIDDQTSCRAETDVFSGMRWAPNGESILLRCCTMHAKNKIYVGTDVVAAGSFYEGGEVAEKDLYGDKGGAEYDFVANARTEQGGVRVWVYRMICAKGEKPVDFDPITTTSAPRVIKTTPAPTTTPTVEEEAEEAEQLEEDQPNDNEAEIVESNDEEEVVEEETEEEEEVTTTPAPKPFNPLRYRPPHFPRQSTGIRRA,not soluble
3,MLMGMKPLRLCAILASIPPLAMVVRGRIRPKNSRKRFPTIVVLGTAQYDGVPSRQFAARLKWAAEQWHTQRSQKVVTVGGKLPEDRFTEAAVAREYLIKEHVDSDLIVAVEQGHDTRGSLRAALSELEQPILIITDPNHSLRAELIARSEGIAAWASSTPYCPTTFPRWQWWWTFVHEQGGLCVVLIELVAGKDVAQKVEDALRRLQAWLRPSRRARHEQLREERLEHHHHHH,not soluble
4,MLPRGALVLNPFSEKAVSPEDRDMVLRRGIAALDCSWKKVKKSSVIFQTARNHRSLPFLVAANPTNYGKPCILSTAEAVAATLYIVGLKDIASDIMSYFKWGPHFLDLNRELLEAYSRAENSLEVVEIQKKFIGGLEHHHHHH,not soluble
5,MLPTRSLLPFFLAPALLASAASQAAMEALDNDSLSQVTGQAGISLRLDLRAGAARVAWVDDGGSLSLRNLVIDNGCVKAGDCPDGRGGNIPLGAAQLGLSLPIFGVEQPTLALDVTTGSGGGQQLAISLPDLATINDQLIASGLPAQRIRLRVASDLYIGDNSIGRIELRDITDLRGTIKVWGH,not soluble
6,MLQNPPRITSTASIVGPKEGKGPLRLFFDNIIEDEMWGEKSWEKAESKLIRETFSKVLQKGNKTSQEIDYVISGDLLNQCIAANFGLRESDVPFFGVYGACSTIAESMSIGAMLVDGGFADNVVCITSSHFCSAEKQFRFPLELGTQRPPSAQWTVTGSGGVLISNDGSGPYITHITTGKIVDMGIKDANNMGAAMAPAAVDTIVTHFKDTGFTPESYDLILTGDLGAIGREICVELTREQGFNIENIYNDCGLMIYDREKQDTHAGGSGCGCAATVFAGFVYKKLMDGTLKNVLFVATGALLSPVSTQQGESIPSIAHAISITTSPERLEHHHHHH,not soluble
7,MLQPPHQSLQVAAVPAQRAPVRDRDQDAPWHTEAVCRRDEAGLFFAPSKEPTAARLSREEAAKRVCARCPVMVECREHALLQPEPYGVWGGLTAAERRVVLARRRRRDVELKKAARGTIAAAG,not soluble
8,MLRPKEACQRLGISYATLREYVKKGYIKPVILQSGKQRFGEEDVERLMGIIRKRKVILYARVSSSTQKDELVNQVKYLEEQVKEYDLVITDIGSGLNMKRKGFLKLLRMILNNEVSRVVVAYPDRLVRVGFEILEEVCKAHNCEIVVLNQEDKEEELVEDLMSALVSFSGKLYGMRSHEYEKVKKCAEELKNWKI,not soluble
9,MLSGDLAEFPFPSLVGALMSAGRTGRLHLRPPFLEAEVYLRGGQVVHAKAQAGERALEGEEALDLLVGLRRAPFVFEPEALPPHTTLLGGLEVPARLAQAQAAWEKVKLPADWGLRLRLPREGSAVELPPEALGLLARVEGKRIAEVLLAPGVLRQARVLSTLLEVGALEAYPEVDLPPEPLVVLPIYGPGSGVAYVDEALYAQWARAIRRGFRVRLLPLGAVLEVRPRPNLQGRVGLMEEDLKRLRLRRGDKVEAVPKV,soluble
10,MLSPIENERSEIPSPEKLKLVEEPSDDESKFSNYDSDDWETLSDDLRLLDEEWGKSGGFDVDFSKVRHRFGRGAVHLDDDNMVSEPHETNRDLLNRLSNMAISFYNDKTGIKLELVKVLRANFHPSAAITLYITFEANDPSDGNQTKRYQAVVRYLSFDIEVCSCNPEPSSS,soluble
11,MLSRTLRPISKVLRSSAKYSQAAGLPLNEGSPAPLPSEDRAISAKVSSLVEEIANLSLLDVSDLNWALKKRLNIPDQPLMAAAAAAPAAQAEAEAASDVPQKMTFTVKLTKFDDTKKIAIIKEIRNAIPGLNLVQAKKFVETAPVNVKEDLGKAEADELKAILEKAGATIEIV,not soluble
12,MLSTVFRRTMATGRHFIAVCQMTSDNDLEKNFQAAKNMIERAGEKKCEMVFLPECFDFIGLNKNEQIDLAMATDCEYMEKYRELARKHNIWLSLGGLHHKDPSDAAHPWNTHLIIDSDGVTRAEYNKLHLFDLEIPGKVRLMESEFSKAGTEMIPPVDTPIGRLGLSICYDVRFPELSLWNRKRGAQLLSFPSAFTLNTGLAHWETLLRARAIENQCYVVAAAQTGAHNPKRQSYGHSMVVDPWGAVVAQCSERVDMCFAEIDLSYVDTLREMQPVFSHRRSDLYTLHINEKSSETGGLKFARFNIPADHIFYSTPHSFVFVNLKPVTDGHVLVSPKRVVPRLTDLTDAETADLFIVAKKVQAMLEKHHNVTSTTICVQDGKDAGQTVPHVHIHILPRRAGDFGDNEIYQKLASHDKEPERKPRSNEQMAEEAVVYRNLM,soluble
13,MLSVDYENFDLISYLYNLVRQIPDGMVSTYGDLAEALGDPVAARSVGFMLSINKEPDYIPCYKVVPHDGSVGNYTHPLGSAEKMRRLIRDGITITNGHISNFEKVRFREFKTDYPLRKLRELQFKIGRLYDDRNDYSLDTIAAFDVSYKETRGYASKVVYNKGKIGAYVYSSDSMFPYIPGYLAFKEFKFIRALYDNETMILIDGNGILHPRFAGLATHAGVSLKTASIGIAKHLINCTVKGSDLLISGVVAGKMIGHHTIVSPGNRINVEEAGRLIEQREGKEMRSLLRLAHNLTRLHIETNGNIARYDFSTRNTAIQSSLEHHHHHH,not soluble
14,MLTDGSYFHLHLVSDSTGETLITVSRAVTAQYANVTPVEHVYPLVRSQKQLDRVLQEIEEAPGIVLFTLLETELVNRLEAKCQEINSPSLSIIGPVMQLFEAYLGASTMGRVGAQHTLNAEYFQRIDALNYSMMHDDGQHVEGLEEADVVLVGVSRTSKTPTSIYLANRGIRTANVPLVAGIPIPHQLETLKKPLVVSLHASPERLIQVRQNRLLSLGAGSGNDSYIDRQAVTDEVLLARKLSAKYGWSLLDVTRRSIEETAAAIMKLLADRQRQRVPELEHHHHHH,not soluble
15,MLTIERHEQIVKLVQEKEVVTIHDLVEYTNASESTIRRDLTELEKQKKLKRIHGGASVLKKRREEPTMAEKTVKNNHEKKKIAELAASFVEDGDCLFLDAGTTTYELIPFIKTKKIVVVTNGLDSISALLEAGVETYVIGGTVKQGTRAFVGRHAIQSLQTFRFDKAFLGINGVHLEDGFTTPDPQEAYVKETALSLSREAFMLVDHSKFGETTFATVAPIHAATIVTSSQVEQQVIQAYETQTAVKVVTLLEHHHHHH,soluble
16,MLTIQFLCPLPNGLHARPAWELKEQCSQWQSEITFINHRQNAKADAKSSLALIGTGTLFNDSCSLNISGSDEEQARRVLEEYIQVRFIDSDSVQPTQAELTAHPLPRSLSRLNPDLLYGNVLASGVGVGTLTLLQSDSLDSYRAIPASAQDSTRLEHSLATLAEQLNQQLRERDGESKTILSAHLSLIQDDEFAGNIRRLMTEQHQGLGAAIISNMEQVCAKLSASASDYLRERVSDIRDISEQLLHITWPELKPRNKLVLEKPTILVAEDLTPSQFLSLDLKNLAGMILEKTGRTSHTLILARASAIPVLSGLPLDAIARYAGQPAVLDAQCGVLAINPNDAVSGYYQVAQTLADKRQKQQAQAAAQLAYSRDNKRIDIAANIGTALEAPGAFANGAEGVGLFRTEMLYMDRDSAPDEQEQFEAYQQVLLAAGDKPIIFRTMDIGGDKSIPYLNIPQEENPFLGYRAVRIYPEFAGLFRTQLRAILRAASFGNAQLMIPMVHSLDQILWVKGEIQKAIVELKRDGLRHAETITLGIMVEVPSVCYIIDHFCDEVDFFSIGSNDMTQYLYAVDRNNPRVSPLYNPITPSFLRMLQQIVTTAHQRGKWVGICGELGGESRYLPLLLGLGLDELSMSSPRIPAVKSQLRQLDSEACRELARQACECRSAQEIEALLTAFTPEEDVRPLLALENIFVDQDFSNKEQAIQFLCGNLGVNGRTEHPFELEEDVWQREEIVTTGVGFGVAIPHTKSQWIRHSSISIARLAKPIGWQSEMGEVELVIMLTLGANEGMNHVKVFSQLARKLVNKNFRQSLFAAQDAQSILTLLETELTF,soluble
17,MLTLVGTYPPIRCGIATFNRDLREALLREGVPSQVAVVAHPEEVALPFPQEVVRVVAKEDREGYRALARLLRGPVILQHEYGLYGGKWGDYVLDLLEAQGPKLVVLHTLLQAPPPGLGEADLRYMQGLLRAMAERAQAFVALHPEGEGLLRALGVRIPVAHIPHGVPDLPRPPKEALKRALGLEGAFLLFTYGLLGPGKGLEFALKVLARVLPHNPRVRYLVAGRLHPNLERHEGRRYLERVREMAEALGVGEAFLLREGYLSEEELYRLAGAADLFLLPYPNLEQVSSGTLSYALALGKAVLSTPFRHARAALAAGRGVLLPLEEEAWAQAVLALAESPERLREMEERAYAYARDFTWPRVARAYRRLLEEVADVRPRVA,soluble
18,MLTQYRQAQEDILRGRVKVRVVGQDKGGGVVMGEGVEIAPGARIEGPVLIGGACHIATGAVVGPFTVLGPYTRVEEGATVRRSVLWDNVYTGEGANVRGAVVCSRASLQRRVQVYEGAVIGDGTQVDAGAEVRPEVKVWPEKTLEHHHHHH,not soluble
19,MLVFISNSRLSESEVQKLRDKHLIDDFIQRENKGYDFAAWHDGMEFVGFENLKQYDSVTVMNDTCFGPLWDMAPIYDNYESNPNVDFWGMTNHQGIKAGDIYIHEHLQSYFISFKKRLVESSVFQKFWKSVESFEDVQKVIDNYETLYTKKFRDAGFNYESILNTIPLNDKFFHSNFTIHYPHVLLDTGVPFIKVKTFDLTQHLAPYLLKEIEKRTDYPVELILSHMSDMSLPTPPYLLDRKVIEKSSQTYSDTKKIAVHLHTYYVDLLEDFLKQFENFHFTYDLFLTTDSEDKKAEIQSILDKNGKVARIFITGNRGRDVIPMLKLKDELSAYDYIGHFHTKKSPEYPYWVGDSWRNELFSMLIQPADNIIANLERDDRLGLVIADIPSFFRYTKIVDPWNENRFAEGMNDLWERMDLGRDIDFDKMNTFIMSYGTFIWFKYDALKPLFDLDLQDEEIPAEPIPQHTILHSIERILVYLAWARRYDYAIAKNDIYITPFVDNVVLNIRPDTLPNTYINFDNIGGIKGALKYIIVGPGTAVKYIFRRIKRKFKSLEHHHHHH,soluble
20,MLYALLLLFGGVSTVSSLRVAVVGEGVIGLSTATAILDLAEKRNIPAPEIHIFHHKPFEKILSRHIAGLFRIDSGSEIDRKYGYDTFEKLATLWREYGGLSGVQLVSGHILSDSKTKLDSQRESYGSLVYNYRDLAEPELFGPTSLFDLPRNTTTRGIHYTAYTSEGLRFCPFLKKELMTKGVRFTQRRIGNLEELGAEFDVVVNSAGLLGGVLAGDDAGNMKPIRGVLIRVDAPWQKHFLYRDFSTITIPVIDHVYMGTVKQEGAFGPNNVTSADIQDITSRYVALQPSFKRVHMLSSFVGYRPGRKQVRVEKQIRETNGSKKFTVVHNYGHSGNGFTLGYGSAVHAAHIVLDLPLDAYHGLVPEPLPINATISEWVKYLDD,not soluble
